The target of experiment [1] is T1, Flag-PAB1 (yeast, UniProt P04147 1-577).
T1 sequence (looked up): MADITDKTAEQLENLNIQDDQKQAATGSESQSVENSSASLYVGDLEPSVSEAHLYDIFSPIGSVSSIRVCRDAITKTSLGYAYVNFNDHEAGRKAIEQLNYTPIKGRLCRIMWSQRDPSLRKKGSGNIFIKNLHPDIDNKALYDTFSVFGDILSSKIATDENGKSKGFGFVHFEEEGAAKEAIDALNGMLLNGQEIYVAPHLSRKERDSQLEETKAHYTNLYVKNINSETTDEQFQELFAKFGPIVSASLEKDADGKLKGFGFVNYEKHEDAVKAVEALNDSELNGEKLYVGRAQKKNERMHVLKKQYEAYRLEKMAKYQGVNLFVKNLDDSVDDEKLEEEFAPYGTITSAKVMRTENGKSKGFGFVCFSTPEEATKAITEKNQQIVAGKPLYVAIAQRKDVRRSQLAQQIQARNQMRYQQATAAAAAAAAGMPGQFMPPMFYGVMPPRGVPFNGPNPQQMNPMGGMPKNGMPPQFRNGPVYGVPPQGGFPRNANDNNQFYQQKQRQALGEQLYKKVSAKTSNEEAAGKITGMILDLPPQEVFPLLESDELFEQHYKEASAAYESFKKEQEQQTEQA
Put plainly: co-IP + AUC; one-step anti-Flag bead purification from yeast crude extract (Tris pH 7.5, 0.15 M KCl, 2 mM MgCl2, 10% glycerol, 4°C), Flag peptide elution, then AU-FDS of the GFP fusion with AU-A230 or AU-A260 (20°C, 15,000 rpm); material migrating at 77S (monosomal translating complex); cycloheximide added to cells; cells on glucose (elongation), or glucose depleted 10 min and glucose added back for 1 min or 0 min (initiation).

Experiment [2] deals with T1, Flag-PAB1. The experiment in a line: co-IP + AUC; one-step anti-Flag bead purification from yeast crude extract (Tris pH 7.5, 0.15 M KCl, 2 mM MgCl2, 10% glycerol, 4°C), Flag peptide elution, then AU-FDS of the GFP fusion with AU-A230 or AU-A260 (20°C, 15,000 rpm); material migrating at 77S (monosomal translating complex); cycloheximide added to cells; cells on glucose (elongation), or glucose depleted 10 min and glucose added back for 1 min or 0 min …. Conditions: partners not purified.

In the next experiment the target is Flag-SBP1 (yeast) (UniProt P10080). The experiment in a line: co-IP + AUC; one-step anti-Flag bead purification from yeast crude extract (Tris pH 7.5, 0.15 M KCl, 2 mM MgCl2, 10% glycerol, 4°C), Flag peptide elution, then AU-FDS of the GFP fusion with AU-A230 or AU-A260 (20°C, 15,000 rpm); material migrating at 77S (monosomal translating complex); cycloheximide added to cells; cells on glucose (elongation), or glucose depleted 10 min and glucose added back for 1 min or 0 min (initiation).
Sequence of Flag-SBP1 (yeast) (P10080 whole entry, the tested form may be a part): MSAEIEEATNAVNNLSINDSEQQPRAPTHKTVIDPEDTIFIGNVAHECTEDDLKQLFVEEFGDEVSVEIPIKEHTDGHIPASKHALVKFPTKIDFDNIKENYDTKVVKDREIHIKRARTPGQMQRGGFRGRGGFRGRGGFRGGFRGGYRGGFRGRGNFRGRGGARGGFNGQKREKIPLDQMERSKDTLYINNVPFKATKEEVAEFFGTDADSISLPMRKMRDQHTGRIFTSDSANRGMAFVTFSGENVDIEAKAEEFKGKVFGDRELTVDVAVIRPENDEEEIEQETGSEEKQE

The target of experiment [3] is T2, eIF4E-Flag (yeast, UniProt P07260 1-213).
T2 sequence (looked up): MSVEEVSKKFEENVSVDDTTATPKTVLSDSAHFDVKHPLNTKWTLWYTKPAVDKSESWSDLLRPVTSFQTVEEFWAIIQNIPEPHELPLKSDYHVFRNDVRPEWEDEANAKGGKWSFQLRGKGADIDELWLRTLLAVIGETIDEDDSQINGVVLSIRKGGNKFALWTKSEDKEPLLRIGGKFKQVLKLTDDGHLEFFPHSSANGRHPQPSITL
The experiment in a line: co-IP + AUC; one-step anti-Flag bead purification from yeast crude extract (Tris pH 7.5, 0.15 M KCl, 2 mM MgCl2, 10% glycerol, 4°C), Flag peptide elution, then AU-FDS of the GFP fusion with AU-A230 or AU-A260 (20°C, 15,000 rpm); material migrating at 77S (monosomal translating complex); cycloheximide added to cells; cells on glucose (elongation), or glucose depleted 10 min and glucose added back for 1 min or 0 min …. Conditions: partners not purified.

For experiment [4], the target named is T2, eIF4E-Flag. Put plainly: co-IP + AUC; as a1, but material migrating from 90S to 200S (polysomal translating complexes); cells on glucose (elongation), or glucose depleted 10 min and glucose added back for 1 min (initiation). Conditions: partners not purified.
The target of experiment [5] is T1, Flag-PAB1. The description is as above. Conditions: partners not purified.

Where only a bound is given, the exact number is not on record here.

With “PUB1-GFP (from UniProt P32588 1-453) (natural protein)”, the relative level in the 77S monosomal translating complex, mRNA set at 100 (elongation) with Flag-PAB1 [1] is less than 0.3 per 100 mRNA.

B1: SLF1-GFP (natural protein, yeast, UniProt Q12034 1-447, looked up)
chain: MSSQNLNDNPKNTSSAAEDKKKQTSSLKLAPIPTTSPWKSSSPDSNTVIPVEELRDISKTAKPSKNGSGSIKLTSNTKWTPITPSVIISGSKDTNSKSGKNSKNSKTNKKMKKRGKYNNDINKKDFNGQTNSTSEISNVSNLESKPLDANAKVNIHSSSGATANGNIKRITNNNNSTNGRQSRNYQNRNGKTRYNNNSRHSQAANNAISFPNNYQARPEYIPNASHWLNNNSRNSYKQLSYFRQQQYYNNINYQQQLQTPYYYSMEPIFKSIESIKNQIEFYFSEENLKTDEFLRSKFKKANDGFIPMSLIGKFYRMVNLSLGGDPNLILASMREVLQHKETNHLEIALGSIEGAQKNMADDFNPLENYFIRRENWAEYAMESNFDENDDETEKYNIEKLLGPNDLDNYSYMGYPNFFPSNENGKKSQSYDQGEISRQFEQNLQIND
notes: source: yeast strain carrying the GFP fusion, in crude extract
For the molecule B1, in the experiment with Flag-PAB1 [2], the “relative level in the 77S monosomal translating complex, mRNA set at 100 (elongation)” value was 2.5 per 100 mRNA and the “relative level in the 77S monosomal translating complex, mRNA set at 100 (initiation)” value is 3.5 per 100 mRNA.

B2: SSD1-GFP (natural protein, yeast, UniProt P24276 1-1250, looked up)
chain: MSKNSNVNNNRSQEPNNMFVQTTGGGKNAPKQIHVAHRRSQSELTNLMIEQFTLQKQLEQVQAQQQQLMAQQQQLAQQTGQYLSGNSGSNNHFTPQPPHPHYNSNGNSPGMSAGGSRSRTHSRNNSGYYHNSYDNNNNSNNPGSNSHRKTSSQSSIYGHSRRHSLGLNEAKKAAAEEQAKRISGGEAGVTVKIDSVQADSGSNSTTEQSDFKFPPPPNAHQGHRRATSNLSPPSFKFPPNSHGDNDDEFIATSSTHRRSKTRNNEYSPGINSNWRNQSQQPQQQLSPFRHRGSNSRDYNSFNTLEPPAIFQQGHKHRASNSSVHSFSSQGNNNGGGRKSLFAPYLPQANIPELIQEGRLVAGILRVNKKNRSDAWVSTDGALDADIYICGSKDRNRALEGDLVAVELLVVDDVWESKKEKEEKKRRKDASMQHDLIPLNSSDDYHNDASVTAATSNNFLSSPSSSDSLSKDDLSVRRKRSSTINNDSDSLSSPTKSGVRRRSSLKQRPTQKKNDDVEVEGQSLLLVEEEEINDKYKPLYAGHVVAVLDRIPGQLFSGTLGLLRPSQQANSDNNKPPQSPKIAWFKPTDKKVPLIAIPTELAPKDFVENADKYSEKLFVASIKRWPITSLHPFGILVSELGDIHDPDTEIDSILRDNNFLSNEYLDQKNPQKEKPSFQPLPLTAESLEYRRNFTDTNEYNIFAISELGWVSEFALHVRNNGNGTLELGCHVVDVTSHIEEGSSVDRRARKRSSAVFMPQKLVNLLPQSFNDELSLAPGKESATLSVVYTLDSSTLRIKSTWVGESTISPSNILSLEQLDEKLSTGSPTSYLSTVQEIARSFYARRINDPEATLLPTLSLLESLDDEKVKVDLNILDRTLGFVVINEIKRKVNSTVAEKIYTKLGDLALLRRQMQPIATKMASFRKKIQNFGYNFDTNTADELIKGVLKIKDDDVRVGIEILLFKTMPRARYFIAGKVDPDQYGHYALNLPIYTHFTAPMRRYADHVVHRQLKAVIHDTPYTEDMEALKITSEYCNFKKDCAYQAQEQAIHLLLCKTINDMGNTTGQLLTMATVLQVYESSFDVFIPEFGIEKRVHGDQLPLIKAEFDGTNRVLELHWQPGVDSATFIPADEKNPKSYRNSIKNKFRSTAAEIANIELDKEAESEPLISDPLSKELSDLHLTVPNLRLPSASDNKQNALEKFISTTETRIENDNYIQEIHELQKIPILLRAEVGMALPCLTVRALNPFMKRV
notes: as for B1
For B2, in the experiment with Flag-PAB1 [2], the “relative level in the 77S monosomal translating complex, mRNA set at 100 (elongation)” value is 1 per 100 mRNA and the “relative level in the 77S monosomal translating complex, mRNA set at 100 (initiation)” value was 1.8 per 100 mRNA.

B3: PAB1-GFP (natural protein, yeast, UniProt P04147 1-577, looked up)
chain: MADITDKTAEQLENLNIQDDQKQAATGSESQSVENSSASLYVGDLEPSVSEAHLYDIFSPIGSVSSIRVCRDAITKTSLGYAYVNFNDHEAGRKAIEQLNYTPIKGRLCRIMWSQRDPSLRKKGSGNIFIKNLHPDIDNKALYDTFSVFGDILSSKIATDENGKSKGFGFVHFEEEGAAKEAIDALNGMLLNGQEIYVAPHLSRKERDSQLEETKAHYTNLYVKNINSETTDEQFQELFAKFGPIVSASLEKDADGKLKGFGFVNYEKHEDAVKAVEALNDSELNGEKLYVGRAQKKNERMHVLKKQYEAYRLEKMAKYQGVNLFVKNLDDSVDDEKLEEEFAPYGTITSAKVMRTENGKSKGFGFVCFSTPEEATKAITEKNQQIVAGKPLYVAIAQRKDVRRSQLAQQIQARNQMRYQQATAAAAAAAAGMPGQFMPPMFYGVMPPRGVPFNGPNPQQMNPMGGMPKNGMPPQFRNGPVYGVPPQGGFPRNANDNNQFYQQKQRQALGEQLYKKVSAKTSNEEAAGKITGMILDLPPQEVFPLLESDELFEQHYKEASAAYESFKKEQEQQTEQA
notes: the printed name puts GFP after the protein; source: yeast strain carrying the GFP fusion, in crude extract
As for B3, in the experiment with Flag-SBP1 (yeast), the relative level in the 77S monosomal translating complex, mRNA set at 100 (elongation) was less than 0.3 per 100 mRNA. Moreover, in the experiment with eIF4E-Flag [3], the “relative level in the 77S monosomal translating complex, mRNA set at 100 (elongation)” value amounted to 12 per 100 mRNA and the “relative level in the 77S monosomal translating complex, mRNA set at 100 (initiation)” value was determined as 15 per 100 mRNA. Moreover, in the experiment with eIF4E-Flag [4], the “relative level in the polysomal translating complexes (90S to 200S), mRNA set at 100 (elongation)” value stood at 74 per 100 mRNA and the “relative level in the polysomal translating complexes (90S to 200S), mRNA set at 100 (initiation)” value is 59 per 100 mRNA.

B4: eIF4E-GFP (natural protein, yeast, UniProt P07260 1-213, looked up)
chain: MSVEEVSKKFEENVSVDDTTATPKTVLSDSAHFDVKHPLNTKWTLWYTKPAVDKSESWSDLLRPVTSFQTVEEFWAIIQNIPEPHELPLKSDYHVFRNDVRPEWEDEANAKGGKWSFQLRGKGADIDELWLRTLLAVIGETIDEDDSQINGVVLSIRKGGNKFALWTKSEDKEPLLRIGGKFKQVLKLTDDGHLEFFPHSSANGRHPQPSITL
notes: as for B3
Regarding B4, the relative level in the 77S monosomal translating complex, mRNA set at 100 (elongation) with Flag-SBP1 (yeast) is less than 0.3 per 100 mRNA. Further, in the experiment with Flag-PAB1 [2], the “relative level in the 77S monosomal translating complex, mRNA set at 100 (elongation)” value worked out at 16 per 100 mRNA and the “relative level in the 77S monosomal translating complex, mRNA set at 100 (initiation)” value was 23 per 100 mRNA. Moreover, in the experiment with Flag-PAB1 [5], the “relative level in the polysomal translating complexes (90S to 200S), mRNA set at 100 (elongation)” value stood at 27 per 100 mRNA and the “relative level in the polysomal translating complexes (90S to 200S), mRNA set at 100 (initiation)” value is 38 per 100 mRNA.
